# The nanobody polyreactivity screen of Harvey et al. (2022)
# Test: yeast display, Sf9 membrane polyspecificity reagent, FACS + sequencing; frameworks hold sequencing errors
# Method in brief: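 Synthetic nanobody libraries on Saccharomyces cerevisiae BJ5465 were galactose-induced for 36–48 hours, stained 1 hour at 4 °C with 10% biotinylated, detergent-solubilized Sf9 membrane reagent and enriched on streptavidin microbeads. FACS then separated cells into low and high (top ~1%) gates by anti-HA (expression) and streptavidin (reagent binding) fluorescence. Genes were colony-PCR amplified, MiSeq 2 × 250 sequenced and CDR-length filtered. A clone's polyreactivity label is that of its gate of origin.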
row,Sequence,polyreactivity (PSR sort gate)
1,QVQLVDSGGGLVQAGGSLRLSCAASGRTFTQNAKGWYRPAPGKERELVAAIRRGGSTNYADSVKWRFTISRDNAKNTVYLQMKSLKPEDTAVYYCATECYYGFSYRYDFWGLGTQVTVSS,high polyreactivity
2,QVQLVDSGGGLVQAGGSLRLSCAASGRTFTRNAMGWYRPATRQERELLAAISFTGGRTYYADSVKGRFTISRDNAKNTVYLQMNSLNPEDTAVYYCNTTSRRSQVGYSTRYDYWGQGTQVTVSS,high polyreactivity
3,QVQLVDSGGGLVQAGGSLRLSCAASGRTFTYYAMGWYRQAPGKERELVASISTTGRTYYADSVKGRFTITRDNAKNTVYLQMNSLKREDTAVYYCNASRVRRWNDYYKKFDYWGQGTQVTVSS,high polyreactivity
4,QVQLVDSGGGLVQAGGSLRLSCAASGRTFWQYAMGWYRQAPGKERELVAAISRSGGSTYYADSVKGRFTISRDNAQNTVSLQMNSLKPEDTAVYYCAAYYLGYNYDYWGQGTQVTVSS,high polyreactivity
5,QVQLVDSGGGLVQAGGSLRLSCAASGRTIHGYAMGWYRQAPGKERELVAAINWRGGSTYYADSVKGRFTISRDNAKNTVYLQMNSLKPEDTAVYYCNKRQYSARVSRSYDYWGQGTQVTVSS,high polyreactivity
6,QVQLVDSGGGLVQAGGSLRLSCAASGRTLYLYAMGWYRQAPGKKRELVAGISWSGTSTYYADSVKGRFTISRDNSKNTVYLQMNSLKPEDTAFYYCAADRLYVRYGYWGQGTQVTVSS,low polyreactivity
7,QVQLVDSGGGLVQAGGSLRLSCAASGSIFFIYAMGWYRQATGKERELVATITSGGSTYYADSVKGRFTISRDNAKNTVYLQMNSLKPEDTAVYYCAKYFVYVGYGRYDYWGQCTQVTVSS,low polyreactivity
8,QVQLVDSGGGLVQAGGSLRLSCAASGSIFKYYAMGWSRQAPGKERELVAAISWSGDSTYYADSVKGRFTISRDNAKNTVYLQMNSLKPEDTAVYYCAAVYPYQVPDYDYWGQGSQVTVSS,low polyreactivity
9,QVQLVDSGGGLVQAGGSLRLSCAASGSIFLGYAMGWYRQAPGKVREFVAAITWSGGSTYYADSVKGRFTISRDIAKNTVYLQMNSLKQEDTAVYYCAVEIWIPTWYGLSGEYDYWGQGTQVTVSS,low polyreactivity
10,QVQLVDSGGGLVQAGGSLRLSCAASGSIFNRYVMGWYRQAPGKERELVAAISRRGGNTYYADSVKGRFTISRDNAKNTVYLQMNSLKPEDTAVYYCAAAYRSYKQFYSYGYEYWGQGTQVTVSS,high polyreactivity
11,QVQLVDSGGGLVQAGGSLRLSCAASGSIFVPYAMGWYRQAPRKERELVAAISWSGGSTNYADSVKGRFTISRDNAKNTVYLQMNSLKPEDTAVYYCNARWSSWYIHSHYYYWGQGTQVTVSS,high polyreactivity
12,QVQLVDSGGGLVQAGGSLRLSCAASGSILGQNAMGGNRQAPGKERELVAAITRGGSSTYYADSVKGRFTISRDNAKNTVYLQMNSLKPEDTAVYYCAAYSSIGYRQISGYYWGEGTQVTVSS,low polyreactivity
13,QVQLVDSGGGLVQAGGSLRLSCAASGSIYNIYAMGWYRQAPGKERELVATITGIADSTYYADSVKGRFTISRDNAKNTVYLQMNSLKPEDTAVYYCAADKYVAEYDYWGQGTQVTVSS,low polyreactivity
14,QVQLVDSGGGLVQAGGSLRLSCAASGSTFDRNGMGWYRQAPGKERELVAAITRGGSTYYADSVKGRFTISRDNAKNTVYLQMNSLKPEDTAVYYCAKRYRGGYYYPYNYWGQGTQVTVSS,high polyreactivity
15,QVQLVDSGGGLVQAGGSLRLSCAASGSTFKINAMGWYRQAPGKERELVAAISSRGGPTYYADSVKGRFTISRDNAKNTVYLQMNRLKPEDTAVYYSAKRRGGSRPYYYWGQGTQVTVSS,high polyreactivity
16,QVQLVDSGGGLVQAGGSLRLSCAASGSTFKIYAMGWYRQAPGKERELVARITSGGSTNYADSVKGRFTISRDNAKNTVYLQMNSLKPEDTAVYYCAARRWSYSTRGQRSSNLDYWGHGTQVTVSS,high polyreactivity
17,QVQLVDSGGGLVQAGGSLRLSCAASGSTFLFNAMGWYRQAPGNVREVVAGISSSGGSTHYADSVKGRFTISRDNAKNTVYLQMNSLKPEDTAVYYCNAQQYLPSEGDYWGQGTQVTVSS,low polyreactivity
18,QVQLVDSGGGLVQAGGSLRLSCAASGSTFRGNAMGWSRQAPGKERELVAAISASGGRTYYADSVKGRFTISRDNAKNTVYLQMNSLKPEETAVYYCAVRDQTDKVPFYYWGQGTQVSVSS,high polyreactivity
19,QVQLVDSGGGLVQAGGSLRLSCAASGSTFSTYPMGWYRQAPGKERELVAAISRSGGTTYYADSVKGRFTISRDNAKNTVYLQMNSLKQEETAVYYCNAVTRYTQIMDYWGQGTQVTVSS,high polyreactivity
20,QVQLVDSGGGLVQAGGSLRLSCAASGSTFTYYAMGWYRQAPGKERELVAAIRNSDGTTYYADSVKGRFTISRDNAKNTVYLQMNSLKPEDTAVYYCAAGPRGRWSTYDYWGQGTQVTVSS,low polyreactivity
21,QVQLVDSGGGLVQAGGSLRLSCAASGSTFYGYTMGWYRQAPGKERELVAAITSSGGSTYYADTVKGRFTISRDNAKNTVYLQMNSLNPEDTAVYYCAARGYRHFYYWGQGTQVTVSS,high polyreactivity

row,Sequence,polyreactivity (PSR sort gate)
1,QVQLVDSGGGLVQAGGSLRLSCAASGSTFYLYAMGWYRQAPGKERELVAVITTDGSTTYADSVKGRFTISRDNATNTVYLEMNSLKPEDTAVYFCAAYGGNGQYYSQYDYWGQGTQVTVSS,low polyreactivity
2,QVQLVDSGGGLVQAGGSLRLSCAASGTIILVYAMGWYRQAPGKERELVARITNGTGSTYYADSVKGRFTISRDNAKNTVYLQMNSLKPEDTAVYYCATGQGSSYRSGPRWYPNAFGYWGQVTQVTVSS,high polyreactivity
3,QVQLVDSGGGLVQAGGSLRLSCAASGYILGRYAMGWYRQAPGKERELVAAISSSGGSTYYADSVKGRFTISRDNGKNSVYLQINSLKPEDTAFYYWNVPRFYGSYNYWGQGTQVTVSS,high polyreactivity
4,QVQLVDSGGGLVQAGGSLRLSCAASGYTFVPYAMGWYRQAPGKERELVAAISSSGGDTYYADSVKGRFTISRDNAKTTVYLQLNSLKPEDTAVYYCNTGVYVWQYWYYGFDYWGQGTQVTVSS,low polyreactivity
5,QVQLVDSGGGLVQAGGSLRLSCAASGYTLDGNAMGWYRQAPGKQREFVAAITIRGGGTYYADSVKGRFTISRDNAKNTDYVQMNSLKPEDSAVYYCNADTYDPFPWGSDYWGQGTQVTVSS,high polyreactivity
6,QVQLVDSGGGLVQAGGSLRLSCAATGFTLPKYAMGWYRQAPGKERELVAAISSGGSTYYADSVKGRYTISRDNAKNTVYLQMNSLKPEDSAVYYCAAKYYYYRRDYWGQGTQVTLSS,high polyreactivity
7,QVQLVDSGGGLVQAGGSLRLSCAAYGLTFTYYDMGWYRQAPGNERELVATFSWSDSSTYADSVKGRFTISRDNAKNTVYLQMNSLKPEDTAVYYCNKVSYYTYDVDYWGQRTQVTVSS,low polyreactivity
8,QVQLVDSGGGLVQAGGSLRLSCADSGRIFVGYAMGWYTQAPGKDRELVAAINRTGSSTYYADSVKGRFTISRDNAKTTVYLQMNSLKPEDTAVYYCNARSGNRYGPRYDYWGQGTQVTVSS,high polyreactivity
9,QVQLVDSGGGLVQAGGSLRLSCASSGFTISPYAMGWYRQAPGKERELVAAISSSGGSTYYADSVKGRFTISRDNAKYTVYLQMTSLKPEDTAVYYCATQGTRRPGKFYYWGQCTQVTVSS,high polyreactivity
10,QVQLVDSGGGLVQAGGSLRLSCASTGSIYRYAIGWNRQSPGKERELVAAINFNGGRTYYADSVKGRFTISSDNAKNTVYLQMNSLKPEDTAVYYCAAVRSSNQGGFDYWGQGTLVTVSS,high polyreactivity
11,QVQLVDSGGGLVQAGGSLRLSCDASGLIFFFYAMRWYRQAPGKERELVAAISDEGVSTDYADSVKGRFTISRDNAKNTVYLQMNSLKPEDTAVYYCAAKTERVYPWFSFGYWGQGTQVTVSS,low polyreactivity
12,QVQLVDSGGGLVQAGGSLRLSCDASGSTFKWYAMGWYRQAPGKERELVAAISWTGASTYYADSVKGRFTISRDNGKNTVYLQMNSLKPEDTAVYYCAADRTYYAMLWTGRSRYDYWGQGTQVTVSS,high polyreactivity
13,QVQLVDSGGGLVQAGGSLRLSCPASGYTIVYNAMGCYRQGPGKEREFVAAITWSGTSTRYADSVKGRFTISRDKAKNTVYLQMNSLKPDDTAVYYCSARFPLVRYNYWGQGTQVTVSS,high polyreactivity
14,QVQLVDSGGGLVQAGGSLRLSCSASGRIFLRYPMGCYRQSPGKERELVAVITWSGGSTNYADSVKGRFTISRDNAKNTVYLQMNSLKPEDTAVYYCAVDNTGRSWPYDYWGQGTQVTVSS,low polyreactivity
15,QVQLVDSGGGLVQAGGSLRLSCSASRSNFVYNAIGWYRKAPWKERELVTGISGGGGTNYADSVKGRFTISRDNEKNTVYLQMNSLKPEDTAVYYCAAEQNYIEFDYWGQGTQVTVSS,low polyreactivity
16,QVQLVDSGGGLVQAGGSLRLSSAASGFIFYEYAMGWYRQAPGKEMELVAAITSGGSTDYADSVKGRFSSSRDNAKNTVYLQMNCMKPDDTAVYYCNADLLTGYYWYKYWGQGTQVSVSS,low polyreactivity
17,QVQLVDSGGGLVQAGGSLRLSSAASGRIFPRYAMGWDRQAPGKERELVATISSGGSTYYADSVKGRFTISRDNAKNTVYLQMISLKPEDTAVYYCATGRQVVRSYSEGDYWGQGTQVTVSS,low polyreactivity
18,QVQLVDSGGGLVQAGGSLRLSSAASGSTFAVNAMGWYIQARGKERELVAAISDSDGSTFYADSVKGRFTISRDNAKNTVYLQMNSLKPEDTAVYYCAATVYRVFRYSYLYYYWGQGTQVTVSS,low polyreactivity
19,QVQLVDSGGGLVQAGGSLRLSSPASGFIIGLYAMGWYRQEPGKERELVAAISTSSGITYYADSVKGRFTISRDNAKNSVYLQMNSLKPEDTAVYYCAARGHYYDFCGQGTQVTVSS,low polyreactivity
20,QVQLVDSGGGLVQAGGSLRLTCAASGSIFDRYAMGWYRQAPGKERELVAAITGRGTSTYYADSVKGRFTISRDNAKNTVYLQMNSLKPEETAVYYCATPFWSRPAQDEYDYWGQGTQVTVSS,high polyreactivity
